Measured values published in publication PMC9992173, “Mapping of the extracellular RBP4 ligand binding domain on the RBPR2 receptor for Vitamin A transport” (Frontiers in Cell and Developmental Biology, 2023).

B1: zebRBPR2 (34) peptide (peptide)
peptide: DKLDSLKDSLEQIALSCNQTESVFTYLIPSINEF
notes: zebrafish RBPR2 peptide of 34 residues; also called zebrafish RBPR2 peptide; source: synthetic peptide (Biomatik Corporation)
B2: msStra6 (40) peptide (peptide)
peptide: SVVPTVQKVRAGINTDVSYLLAGFGIVLSEDRQEVVELVK
notes: mouse STRA6 peptide of 40 residues with Tyr336, Gly340 and Gly342; also called msSTRA6 peptide; mouse STRA6 peptide; source: synthetic peptide (Biomatik Corporation)
B3: msRbpr2 (42) peptide (peptide)
peptide: HVRDKLDMFEDKLESYLTHMNETGTLTPIILQVKELISVTKG
notes: mouse RBPR2 (STRA6like) peptide of 42 residues with the SYL residues S294, Y295, L296; also called WT-msRBPR2 peptide; mouse RBPR2 peptide; source: synthetic peptide (Biomatik Corporation)

Biological target: T1, Recombinant mouse RBP4 with 6XHis Tag (mouse, UniProt Q00724 19-201)
T1 construct: Amine-coupled to a CM5 chip for SPR; also called msRBP4; source: E. coli expression system, purified (nickel NTA column)
Assay: SPR; mouse RBP4 amine-coupled to a CM5 chip (target 1,200 RU), Biacore S200; peptides as analytes, 0.8-26.6 uM; running buffer PBST (0.05% Tween20); 25 C; contact 120 s, dissociation 300 s; Kd from the site-specific binding fit Y=(Bmax*X)/(Kd+X)
Conditions: both partners purified

Kd	Binder
33.2 µM	B1
26.7 µM	B2
25.4 µM	B3
